Assay results: patent US20170269080A1 (VIRGINIA COMMONWEALTH UNIVERSITY, published 2017)

Key:
[1] = target: T1, PSGL-1 (sLe^x-capped, sialylated) on PSGL-1 CHO cells (UniProt Q14242 42-412, sLe^x-capped (alpha2,3-sialylated, alpha1,3-fucosylated glycan)); test: PSGL-1 CHO cells preincubated with GST-OmpA, Aph adherence counted (competition with the bacteria)
T1 construct: whole, on cells; also called sLe^x-modified PSGL-1; sialylated PSGL-1
T1 sequence: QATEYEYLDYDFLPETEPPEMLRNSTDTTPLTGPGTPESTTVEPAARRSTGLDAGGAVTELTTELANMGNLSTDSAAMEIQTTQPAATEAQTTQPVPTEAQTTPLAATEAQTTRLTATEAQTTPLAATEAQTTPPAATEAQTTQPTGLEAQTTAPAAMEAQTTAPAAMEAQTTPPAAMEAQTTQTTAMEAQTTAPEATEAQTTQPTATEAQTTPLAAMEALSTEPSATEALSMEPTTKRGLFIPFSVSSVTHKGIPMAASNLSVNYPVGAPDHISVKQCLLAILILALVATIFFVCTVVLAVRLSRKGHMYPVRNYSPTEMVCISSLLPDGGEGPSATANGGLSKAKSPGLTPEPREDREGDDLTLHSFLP

[2] = target: the molecule itself; test: non-reducing SDS-PAGE and Western blot with anti-Asp14

B1: GST-OmpA (N-terminal glutathione-S-transferase-tagged A. phagocytophilum OmpA without signal sequence) (other)
chain: CGTLLPDSNVGVGRHDLGSHRSVAFAKKVEKVYFDIGKYDLKGPGKKVILELVEQLRQDDSMYLVVIGHADATGTEEYSLALGEKRANAVKQFIIGCDKSLAPRVTTQSRGKAEPEVLVYSTDAQEVEKANAQNRRAVIVVEFAHIPRSGVADMHAPVASSITSENSNASAEGEDMEASEFSSAIAN
notes: also called GST-tagged Aph OmpA; GST-ApOmpA; not shown: glutathione-S-transferase (GST) tag, N-terminal, from vector pDest-15
**Q.** For B1, which “reduction of Aph binding to sLe^x-modified PSGL-1 relative to GST alone” value [1] is on record?
**A.** ~60%

B2: GST-Asp14 (N-terminal glutathione-S-transferase-tagged A. phagocytophilum Asp14) (other)
chain: MIPLAPWKSISVVYMSGSDEYKEIIKQCIGSVKEVFGEGRFDDVVASIMKMQEKVLASSMQQDDTGTVGQIESGEGSGARLSDEQVQQLMNSIREEFKDDLRAIKRRILKLERAVYGANTPKES
notes: Coding region of asp14 (13.8 kDa) fused to GST; also called recombinant Asp14; not shown: glutathione-S-transferase (GST) tag, N-terminal, from vector pDest-15
**Q.** Does B2 bind [2]?
**A.** binds
